# Data from patent US20180339059A1 (DINGFU BIOTARGET, published 2018).
# Where two headings read alike, the source gives them in different places.
# T1: hCD27-EGFP on HEK293 cells (human, UniProt P26842 20-260)
# T1 construct: pcDNA4-hCD27-EGFP transfected into HEK293; not shown: EGFP, C5MKY7
# T1 sequence (looked up): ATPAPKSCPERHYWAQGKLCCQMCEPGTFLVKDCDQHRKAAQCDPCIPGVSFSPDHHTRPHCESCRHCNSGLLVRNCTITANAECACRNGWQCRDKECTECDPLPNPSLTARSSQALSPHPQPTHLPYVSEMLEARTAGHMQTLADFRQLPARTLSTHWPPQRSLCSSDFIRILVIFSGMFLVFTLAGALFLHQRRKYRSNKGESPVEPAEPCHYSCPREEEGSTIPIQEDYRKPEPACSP
# T2: hOX40-muFc (human; mouse, UniProt P43489 29-216)
# T2 construct: range 1-216; Expressed in HEK293, purified on Protein A; also called recombinant human OX40; not shown: mouse IgG1-Fc (muFc) domain, residue 98 to residue 324 of P01868
# T2 sequence (looked up): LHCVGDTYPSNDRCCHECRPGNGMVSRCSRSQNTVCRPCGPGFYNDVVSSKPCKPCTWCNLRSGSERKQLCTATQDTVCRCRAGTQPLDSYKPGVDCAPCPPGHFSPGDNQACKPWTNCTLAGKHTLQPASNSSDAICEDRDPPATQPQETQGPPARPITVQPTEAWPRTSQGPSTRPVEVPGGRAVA
# Tests used:
# [1] = target: T1, hCD27-EGFP on HEK293 cells; test: flow cytometry on HEK293 cells expressing hCD27-EGFP, anti-hIg-PE
# Experimental: (§1) HEK293 cells expressing hOX40-EGFP, hCD137-EGFP and hCD27-EGFP obtained in Embodiment 1 were resuspended in 0.5% PBS-BSA Buffer and anti-hOX40 mAb protein was added and the mixture was incubated on ice for 20 min. After washing, secondary antibody anti-hlg-PE (eBioscience) was added, and the mixture was incubated on ice for 20 min. After washing, the cells were resuspended in 500 μl 0.5% PBS-BSA Buffer and detected by flow cytometry.
# [2] = target: T3, hCD137-EGFP on HEK293 cells (human, UniProt Q07011 24-255); test: flow cytometry on HEK293 cells expressing hCD137-EGFP, anti-hIg-PE
# T3 construct: pcDNA4-hCD137-EGFP transfected into HEK293; not shown: EGFP, C5MKY7
# Experimental: as §1
# hOX40-muFc [3] = target: T2, hOX40-muFc; test: SPR, BIAcore X100; antibody captured by anti-human Fc on CM5 chip, OX40-muFc as analyte, 1:1 model
# Experimental: (§2) The binding kinetics of anti-hOX40 antibody to recombinant human OX40 was measured by surface plasmon resonance (SRP) method using a BIAcore X100 instrument. Anti-human Fc antibody (no cross-identification against the mouse Fc) was conjugated on CM5 chip, the test antibody was diluted to 5 nM with running buffer and captured as a ligand by the anti-human Fc antibody on the CM5 chip. […] The injection time is 180 s, the dissociation time is 1800 s and the regeneration time is 60 s. The running buffer is HBS-EP+, and the regeneration buffer is 10 mM glycine-HCl (pH 2.0). The association rate (kₒₙ) and dissociation rate (koff) were calculated using a simple one-to-one Languir binding model (BIAcore Evaluation Software version 3.2). The equilibrium dissociation constant (kD) is calculated as the ratio koff/kₒₙ. It can be seen from Table 3 that the affinity of the affinity-matured anti-OX40 21 # H96-L80 mAb is increased approximately two times.
# hOX40-muFc [4] = target: T2, hOX40-muFc; test: ELISA, hOX40-muFc coated at 2 µg/ml, goat anti-human IgG-HRP; column C of the drawn 4-P fit table y=(A-D)/(1+(x/C)^B)+D; the axis prints no unit, ng/ml is from paragraph 210
# Experimental: (§3) hOX40-muFc was diluted to 2 μg/ml with coating buffer (50 mM Na₂CO₃, NaHCO₃ pH 9.6), 100 μL/well, 4° C. overnight. After washing, blocking was performed using 3% BSA-PBS for 1 h at 37° C. The anti-hOX40 antibodies were diluted respectively from 2000 ng/ml and was diluted 2-fold in a total of 11 concentrations, with the diluent (1% BSA-PBS) as a control, and incubated at 37° C. for 2 h. Goat anti-human IgG-HRP conjugated was added and incubated for 1 h at 37° C. Soluble one-component TMB substrate developer solution is added, and the developing was performed in dark at room temperature for 5-10 min. 2N H₂SO₄ 50 μL/well was added to terminate the color development reaction. The OD of the obtained solution was determined at 450 nm-650 nm on MD SpectraMax Plus 384 microplate reader and SoftMaxPro v5.4 was used for processing data, making graphs and analysis. […] It can be seen from FIG. 5 and FIG. 6 that all the above variants of anti-OX40 21 # mAb can bind to OX40 and the affinity of the in vitro affinity-matured anti-OX40 21 # VHnew-L80 mAb and anti-OX40 21#H96-L80 mAb increased approximately two times compared to anti-OX40 21# mAb.
# hOX40-muFc [5] = target: T2, hOX40-muFc; test: as above; remark: listed apart in the source
# Experimental: as §3
# hOX40-muFc [6] = target: T2, hOX40-muFc; test: as above; remark: listed apart in the source
# Experimental: as §3
# hOX40-muFc [7] = target: T2, hOX40-muFc; test: ELISA, hOX40-muFc coated at 2 µg/ml, goat anti-human IgG-HRP
# Experimental: as §3
# hOX40-muFc [8] = target: T2, hOX40-muFc; test: SPR, BIAcore X100; antibody captured by anti-human Fc on CM5 chip, OX40-muFc as analyte
# Experimental: as §2
# T3 sequence (Q07011 24-255): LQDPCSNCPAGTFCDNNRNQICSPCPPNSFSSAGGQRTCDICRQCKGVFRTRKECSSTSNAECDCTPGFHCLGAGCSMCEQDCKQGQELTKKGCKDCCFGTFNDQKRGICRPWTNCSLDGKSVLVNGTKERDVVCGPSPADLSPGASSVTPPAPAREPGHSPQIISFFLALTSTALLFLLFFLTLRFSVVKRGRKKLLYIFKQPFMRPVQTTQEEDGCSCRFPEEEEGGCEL
Binder,Kd (hOX40-muFc [3]) [nM],koff (hOX40-muFc [3]) [s⁻¹],kon (hOX40-muFc [3]) [M⁻¹ s⁻¹],EC50 (hOX40-muFc [4]) [µg/mL],EC50 (hOX40-muFc [5]) [µg/mL],EC50 (hOX40-muFc [6]) [µg/mL],other results
"O19 mAb (antibody, IgG4, V domains shown, IgG4, lambda; expressed in HEK293; not shown: human immunoglobulin gamma4 (IgG4) constant region, P01861; human immunoglobulin lambda light chain constant region, A0M8Q6) VH: QVQLVESEGGLVQPGGSLRLSCAASRFTFSNYWMSWVRQAPGKGLEWVANIKQDGSEKYYMDSVKGRFTISRDNAKNSLFLQMNTLRAEDTAMYYCTRVSFGVPTYDDFWRSYATPAWYFDFWGRGTLVTVSS VL: QSALIQPASVSGSPGQSITISCTGISSDDGYYKYVSWYQQYPGKAPKLMIYDVSKRPSGISFRFSGSKSGNTASLTISGLQAEDEADYYCSSYTSNMTPYVFGTGTKVTVL",–,–,–,–,–,–,binding result [1]: no binding; binding result [2]: no binding
"O3 mAb (antibody, IgG4, V domains shown, IgG4, lambda; expressed in HEK293; also called 03 mAb; not shown: human immunoglobulin gamma4 (IgG4) constant region, P01861; human immunoglobulin lambda light chain constant region, A0M8Q6) VH: QVQLQQWGAGLLKPSETLSLTCGFNGEYFTDYFWTWVRQPPGEALEWLALIYWDDDERYSPSLKNRLIITKDISKNQVVLTMTHMEPADTGTYYCARWGGSLMNAFDVWGPGTMVTVSS VL: QSALIQPASVSGSPGQSITISCTGTSSDVGGYNYVSWYQRHPGKAPRLMIYDVTKRPSGVSNRFSGSKSGNTASLTISGLQAEDEADYYCSSYTSSSIAVFGGGTQLTVL",1.38,0.000391,284000,0.0139,–,–,–
"anti-OX40 21#H96 mAb (antibody, IgG4, V domains shown, Formatted as IgG according to Embodiment 3 (IgG4); also called H96 heavy chain mutant; not shown: human immunoglobulin gamma4 (IgG4) constant region, P01861; human immunoglobulin kappa light chain constant region, P01834) VH: QVQLQQSGPGLVKPSQTLSLTCAISGDSVSSNSVSWDWIRQSPSRGLEWLGRTYYRSKWYNEYAVSVESRITINPDTSKNQFSLQLNSVTPEDTAIYFCVRNDYFFDLWGRGTLVTVSS VL: EIVLTQSPATLSLSPGERATLSCRASQSVSSYLAWYQQKPGQAPRLLIYDASDRATGIPARFSGSGSGTDFTLTISSLEPEDFAVYYCQLRSNWPPGYTFGQGTKVEIK",–,–,–,–,0.046,–,–
"O21 mAb (antibody, IgG4, V domains shown, also called 021 mAb; anti-OX40 21# mAb; not shown: human immunoglobulin gamma4 (IgG4) constant region, P01861; human immunoglobulin kappa light chain constant region, P01834) VH: QVQLQQSGPGLVKPSQTLSLTCAISGDSVSSNSVSWDWIRQSPSRGLEWLGRTYYRSKWYNEYAVSVESRITINPDTSKNQFSLQLNSVTPEDTAIYFCVRNNYFFDLWGRGTLVTVSS VL: EIVLTQSPATLSLSPGERATLSCRASQSVSSYLAWYQQKPGQAPRLLIYDASDRATGIPARFSGSGSGTDFTLTISSLEPEDFAVYYCQLRSNWPPGYTFGQGTKVEIK",14.5,0.000608,41800,0.0139,0.0758,0.0298,binding result [1]: no binding; binding result [2]: no binding
"O3 scFv (scFv, Purified as scFv fused with human IgG1-Fc, expressed in HEK293; also called anti-hOX40 scFv O3; not shown: human IgG1-Fc (hFc) domain, residues 104-330 of P01857) scFv: QVQLQQWGAGLLKPSETLSLTCGFNGEYFTDYFWTWVRQPPGEALEWLALIYWDDDERYSPSLKNRLIITKDISKNQVVLTMTHMEPADTGTYYCARWGGSLMNAFDVWGPGTMVTVSSGGGGSGGGGSGGGGSQSALIQPASVSGSPGQSITISCTGTSSDVGGYNYVSWYQRHPGKAPRLMIYDVTKRPSGVSNRFSGSKSGNTASLTISGLQAEDEADYYCSSYTSSSIAVFGGGTQLTVL",–,–,–,0.309,–,–,–

# Second part, led by results:
Kd (hOX40-muFc [3]) [nM],koff (hOX40-muFc [3]) [s⁻¹],kon (hOX40-muFc [3]) [M⁻¹ s⁻¹],EC50 (hOX40-muFc [4]) [µg/mL],EC50 (hOX40-muFc [5]) [µg/mL],EC50 (hOX40-muFc [6]) [µg/mL],Binder,other results
–,–,–,–,0.0609,–,"anti-OX40 21#H65 mAb (antibody, IgG4, V domains shown, Formatted as IgG according to Embodiment 3 (IgG4); not shown: human immunoglobulin gamma4 (IgG4) constant region, P01861; human immunoglobulin kappa light chain constant region, P01834) VH: QVQLQQSGPGLVKPSQTLSLTCAISGDSVSSNSVSWDWIRQSPSRGLEWLGRTYYRSKWYNEYAVSVENRITINPDTSKNQFSLQLNSVTPEDTAIYFCVRNNYFFDLWGRGTLVTVSS VL: EIVLTQSPATLSLSPGERATLSCRASQSVSSYLAWYQQKPGQAPRLLIYDASDRATGIPARFSGSGSGTDFTLTISSLEPEDFAVYYCQLRSNWPPGYTFGQGTKVEIK",–
7.9,0.000237,30000,–,–,0.0154,"anti-OX40 21#H96-L80 mAb (antibody, V domains shown, Formatted as IgG according to Embodiment 3 (IgG4); also called H96-L80 IgG4; not shown: human immunoglobulin gamma4 (IgG4) constant region, P01861; human immunoglobulin kappa light chain constant region, P01834) VH: QVQLQQSGPGLVKPSQTLSLTCAISGDSVSSNSVSWDWIRQSPSRGLEWLGRTYYRSKWYNEYAVSVESRITINPDTSKNQFSLQLNSVTPEDTAIYFCVRNDYFFDLWGRGTLVTVSS VL: EIVLTQSPATLSLSPGERATLSCRASQSVGSYLAWYQQKPGQAPRLLIYDASNRATGIPARFSGSGSGTDFTLTISSLEPEDFAVYYCQQRSNWPPGYTFGQGTKVEIK",fold increase of affinity compared to anti-OX40 21# mAb (hOX40-muFc [7]): ~2 times; fold increase of affinity (reference not given; O21 mAb by Table 3) (hOX40-muFc [8]): ~2 times
10.3,0.000342,33300,–,–,0.0134,"anti-OX40 21#VHnew-L80 mAb (antibody, IgG4, V domains shown, Formatted as IgG according to Embodiment 3 (IgG4); not shown: human immunoglobulin gamma4 (IgG4) constant region, P01861; human immunoglobulin kappa light chain constant region, P01834) VH: QVQLQQSGPGLVKPSQTLSLTCAISGDSVSSNGVSWDWIRQSPSRGLEWLGRTYYRSKWYNEYAVSVENRITINPDTSKNQFSLQLNSVTPEDTAIYFCVRNDYFFDLWGRGTLVTVSS VL: EIVLTQSPATLSLSPGERATLSCRASQSVGSYLAWYQQKPGQAPRLLIYDASNRATGIPARFSGSGSGTDFTLTISSLEPEDFAVYYCQQRSNWPPGYTFGQGTKVEIK",fold increase of affinity compared to anti-OX40 21# mAb (hOX40-muFc [7]): ~2 times
–,–,–,–,0.0432,–,"anti-OX40 21#H28H33 mAb (antibody, IgG4, V domains shown, Formatted as IgG 'according to the method in Embodiment 3' (IgG4); not shown: human immunoglobulin gamma4 (IgG4) constant region, P01861; human immunoglobulin kappa light chain constant region, P01834) VH: QVQLQQSGPGLVKPSQTLSLTCAISGDNVSSNGVSWDWIRQSPSRGLEWLGRTYYRSKWYNEYAVSVESRITINPDTSKNQFSLQLNSVTPEDTAIYFCVRNNYFFDLWGRGTLVTVSS VL: EIVLTQSPATLSLSPGERATLSCRASQSVSSYLAWYQQKPGQAPRLLIYDASDRATGIPARFSGSGSGTDFTLTISSLEPEDFAVYYCQLRSNWPPGYTFGQGTKVEIK",–
–,–,–,0.00949,–,–,"O21 scFv (scFv, Purified as scFv fused with human IgG1-Fc; also called anti-OX40 21# scFv; not shown: human IgG1-Fc (hFc) domain, residues 104-330 of P01857) scFv: QVQLQQSGPGLVKPSQTLSLTCAISGDSVSSNSVSWDWIRQSPSRGLEWLGRTYYRSKWYNEYAVSVESRITINPDTSKNQFSLQLNSVTPEDTAIYFCVRNNYFFDLWGRGTLVTVSSGGGGSGGGGSGGGGSEIVLTQSPATLSLSPGERATLSCRASQSVSSYLAWYQQKPGQAPRLLIYDASDRATGIPARFSGSGSGTDFTLTISSLEPEDFAVYYCQLRSNWPPGYTFGQGTKVEIK",–
